Experimental data as given in the Immune Epitope Database (IEDB).

Columns and labels:
HLA-A*02:01 = test: IEDB peptide-MHC binding, purified MHC/direct/fluorescence; filed as Kd, often an IC50 or EC50 that approximates it; ≥ and ≤ were set here for values at or beyond the usual limits of such assays; conditions: source organism: Salmonella enterica subsp. enterica serovar Typhimurium
HLA-A*69:01 = test: as above
HLA-B*40:01 [1] = test: IEDB peptide-MHC binding, purified MHC/competitive/radioactivity; filed as Kd, often an IC50 or EC50 that approximates it; ≥ and ≤ were set here for values at or beyond the usual limits of such assays
HLA-B*44:02 = test: as above
HLA-B*44:03 = test: as above
HLA-A*01:01 = test: as above
HLA-A*26:01 = test: as above
HLA-A*30:02 = test: as above; conditions: source organism: Mammarenavirus brazilense
HLA-A*24:02 = test: as above
HLA-A*32:01 = test: as above
HLA-A*02:02 = test: as above; conditions: source organism: Vaccinia virus WR
HLA-A*02:03 = test: as above; conditions: source organism: Vaccinia virus WR
HLA-A*02:06 = test: as above; conditions: source organism: Vaccinia virus WR
HLA-A*23:01 = test: as above
HLA-B*40:01 [2] = test: IEDB peptide-MHC binding, purified MHC/direct/fluorescence; filed as Kd, often an IC50 or EC50 that approximates it; ≥ and ≤ were set here for values at or beyond the usual limits of such assays; conditions: source organism: Mammarenavirus lassaense
HLA-B*15:01 = test: as above
HLA-B*58:01 = test: as above; conditions: source organism: Influenza A virus (A/Istanbul/CTF/10/2004(H3N2))
HLA-A*03:01 = test: as above; conditions: source organism: Clostridium botulinum
[3] = source organism: Salmonella enterica subsp. enterica serovar Typhimurium
[4] = source organism: Dengue virus 3 Martinique/1243/1999
[5] = source organism: Dengue virus 2 Peru/IQT2913/1996
[6] = source organism: Mammarenavirus brazilense
[7] = source organism: Dengue virus 2 Jamaica/1409/1983
[8] = source organism: Vaccinia virus WR
[9] = source organism: Dengue virus 4 Philippines/H241/1956
[10] = source organism: Dengue virus 1 Brazil/97-11/1997
[11] = source organism: Rickettsia conorii

Row | Sequence | Kd (HLA-A*02:02) | Kd (HLA-A*02:03) | Kd (HLA-A*02:06) | also measured
1 | ELLSHVGQA |  |  |  | Kd (HLA-A*02:01): 3.59 µM; Kd (HLA-A*69:01; [3]): 0.0631 µM
2 | KEENMVKSL |  |  |  | Kd (HLA-B*40:01 [1]; [4]): 0.156 µM
3 | IEKASFIEV |  |  |  | Kd (HLA-B*40:01 [1]; [5]): 4.04 µM
4 | HEEPVPMSTY |  |  |  | Kd (HLA-B*44:02; [4]): 0.106 µM; Kd (HLA-B*44:03; [4]): 0.409 µM
5 | GYKETPFLT |  |  |  | Kd (HLA-A*01:01; [6]): ≥ 65.2 µM; Kd (HLA-A*26:01; [6]): ≥ 77.9 µM; Kd (HLA-A*30:02): ≥ 76.9 µM
6 | GVPPLPLFIF |  |  |  | Kd (HLA-A*24:02; [4]): 0.494 µM
7 | KEIGRMLNI |  |  |  | Kd (HLA-B*40:01 [1]; [7]): 0.216 µM; Kd (HLA-B*44:02; [7]): 0.418 µM; Kd (HLA-B*44:03; [7]): 0.417 µM
8 | GVSGGSWVDI |  |  |  | Kd (HLA-A*32:01; [7]): 4.31 µM
9 | ITISEDGSM |  |  |  | Kd (HLA-A*26:01; [7]): 2.99 µM
10 | STIANSNII | 6.12 µM | 1.47 µM | 1.24 µM | Kd (HLA-A*32:01; [8]): 0.0143 µM
11 | YSDPLALKE |  |  |  | Kd (HLA-A*01:01; [7]): 0.311 µM
12 | AYMIGQTGI |  |  |  | Kd (HLA-A*24:02; [9]): 0.093 µM
13 | EHALLATSIF |  |  |  | Kd (HLA-A*23:01; [10]): 4.61 µM; Kd (HLA-A*26:01; [10]): ≥ 22.4 µM
14 | WLVHKQWFLD |  |  |  | Kd (HLA-A*32:01; [10]): 2.07 µM
15 | RSIMGSNNI |  |  |  | Kd (HLA-A*32:01; [8]): 0.141 µM
16 | SEVSNVQRL |  |  |  | Kd (HLA-B*40:01 [2]): 0.0709 µM
17 | IIMFDAEKL |  |  |  | Kd (HLA-A*69:01; [11]): 1.11 µM; Kd (HLA-B*15:01; [11]): 3.35 µM
18 | RLVDSIVSW |  |  |  | Kd (HLA-B*58:01): 0.0491 µM
19 | IQRDQVTDY |  |  |  | Kd (HLA-B*15:01; [3]): 0.239 µM
20 | PISDYSAEV | 0.716 µM | 0.267 µM | 2.8 µM | 
21 | AELEEGVYR |  |  |  | Kd (HLA-B*44:03; [4]): 9.27 µM
22 | ITINYFLLL |  |  |  | Kd (HLA-A*32:01; [8]): ≥ 77.8 µM
23 | EERVILAGPM |  |  |  | Kd (HLA-B*40:01 [1]; [7]): 2.74 µM; Kd (HLA-B*44:02; [7]): 2.28 µM
24 | QTLISLNSM | 19.4 µM | ≥ 39.3 µM | 7.51 µM | 
25 | NELPESLETL |  |  |  | Kd (HLA-B*40:01 [1]; [9]): 0.246 µM

Row | Sequence | Kd (HLA-A*02:02) | Kd (HLA-A*02:03) | Kd (HLA-A*02:06) | also measured
26 | IISYIILFI | 0.00278 µM | 0.0587 µM | 0.0271 µM | Kd (HLA-A*32:01; [8]): ≥ 27.6 µM
27 | EVTARWLWGF |  |  |  | Kd (HLA-A*26:01; source organism: Dengue virus 1 Singapore/S275/1990): 0.0327 µM
28 | IIAVFDSKL | 0.044 µM | 0.107 µM | 0.0986 µM | 
29 | FISPASISSV | 0.00301 µM | 0.000111 µM | 0.00202 µM | 
30 | DAEFVMCLEA | 2.41 µM | 7.31 µM | 12.7 µM | 
31 | FISYNRHNDT | 6.84 µM | 4.93 µM | 11.3 µM | 
32 | KINNFANEF |  |  |  | Kd (HLA-A*32:01; [8]): 0.00208 µM
33 | KEAKMLLDNI |  |  |  | Kd (HLA-B*44:03; [7]): 1.76 µM
34 | TVITPMLRH |  |  |  | Kd (HLA-A*26:01; [4]): 14.3 µM
35 | RVTTELNIV | 2.46 µM | 0.116 µM | 0.0457 µM | 
36 | VMPEKRNVV | 1.1 µM | 0.023 µM | 3.29 µM | 
37 | TLISSDGARV | 0.142 µM | 0.133 µM | 1.22 µM | 
38 | EYVKTRTNDW |  |  |  | Kd (HLA-A*23:01; [5]): 3.41 µM; Kd (HLA-A*24:02; [5]): 2.17 µM
39 | FTEGKINPLL | 0.15 µM | 0.595 µM | 0.0858 µM | 
40 | PTEMVDVSM | 10.6 µM | ≥ 41.3 µM | ≥ 40.2 µM | 
41 | MEKYQLAVTI |  |  |  | Kd (HLA-B*44:02; [7]): 0.331 µM
42 | GPISTLWEGN |  |  |  | Kd (HLA-A*32:01; [7]): 9.04 µM
43 | WNSGYDWITD |  |  |  | Kd (HLA-A*32:01; [10]): 4.83 µM
44 | FIQWTGGNI | 0.683 µM | 0.0547 µM | 5.91 µM | 
45 | LTARATWATN |  |  |  | Kd (HLA-A*32:01; [10]): ≥ 44.4 µM
46 | TINALVYFST | 14.1 µM | 7.34 µM | ≥ 62.2 µM | 
47 | KYLYLWSFK |  |  |  | Kd (HLA-A*03:01): 0.167 µM
48 | NALKINWYKK |  |  |  | Kd (HLA-A*32:01; [4]): 2.14 µM
49 | ATICLKNEGV | 0.436 µM | 0.0709 µM | 0.0425 µM | 
